Test results reported in article PMC2719696, “Kinetics and Cellular Site of Glycolipid Loading Control the Outcome of Natural Killer T Cell Activation” (Immunity, 2009).

T1: mCD1d (Mus musculus, UniProt P11609)
T1 sequence (P11609 22-305 limits assumed): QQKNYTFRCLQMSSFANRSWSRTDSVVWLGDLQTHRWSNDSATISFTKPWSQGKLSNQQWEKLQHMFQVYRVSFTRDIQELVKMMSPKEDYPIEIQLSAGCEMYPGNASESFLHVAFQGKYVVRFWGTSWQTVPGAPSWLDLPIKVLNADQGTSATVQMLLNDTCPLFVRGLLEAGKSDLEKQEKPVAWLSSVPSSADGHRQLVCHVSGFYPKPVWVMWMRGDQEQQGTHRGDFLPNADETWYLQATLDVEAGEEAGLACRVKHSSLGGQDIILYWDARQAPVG
T1 sequence (P01887 21-119 partner): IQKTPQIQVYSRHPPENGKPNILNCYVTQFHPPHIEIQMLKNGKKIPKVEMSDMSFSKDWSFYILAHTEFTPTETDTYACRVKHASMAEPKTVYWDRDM

B1: Saposin B: recombinant purified human saposin B, lipid transfer protein (protein, UniProt P07602 195-273, looked up)
Saposin-B: GDVCQDCIQMVTDIQTAVRTNSTFVQALVEHVKEECDRLGPGMADICKNYISQYSEIAIQMMMHMQPKEICALVGFCDE
modifications: Saposin-B
notes: recombinant purified human saposin B, lipid transfer protein
B2: saposin A: recombinant purified human saposin A (protein, UniProt P07602 60-142, looked up)
Saposin-A: SLPCDICKDVVTAAGDMLKDNATEEEILVYLEKTCDWLPKPNMSASCKEIVDSYLPVILDIIKGEMSRPGEVCSALNLCESLQ
modifications: Saposin-A
B3: saposin C: recombinant purified human saposin C (protein, UniProt P07602 311-390, looked up)
Saposin-C: SDVYCEVCEFLVKEVTKLIDNNKTEKEILDAFDKMCSKLPKSLSEECQEVVDTYGSSILSILLEEVSPELVCSMLHLCSG
modifications: Saposin-C
B4: saposin D: recombinant purified human saposin D (protein, UniProt P07602 405-486, looked up)
Saposin-D: DGGFCEVCKKLVGYLDRNLEKNSTKQEILAALEKGCSFLPDPYQKQCDQFVAEYEPVLIEILVEVMDPSFVCLKIGACPSAH
modifications: Saposin-D

Experiments:
[1] = system: iNKT cells; test: In vivo activation of iNKT cells by i.p. glycolipid injection; serum cytokines by capture ELISA; settings: C57BL/6 mice, i.p. 4 nmoles
Description: (§1) Figure 1 Synthetic Analogs of αGalCer (A) Structures and nomenclature of iNKT cell-activating αGalCer analogs used in this study. The nomenclature used in most cases is based on the identity of the amide-linked acyl group in the ceramide moiety. Acyl carbon chain length and number of unsaturations are indicated by the names of most analogs, with exceptions being OCH (which has a C24 saturated acyl chain) and the compounds with amide-linked prostaglandin B1 (PGB1) or 4-fluorophenyl acetate (4FPA) groups. The phytosphingosine base is 18 carbons in length for all analogs except OCH, which has a nine-carbon base. (B) Hybridoma DN3A4.1-2 (Vβ8.2^+) was stimulated with each of the αGalCer analogs at a range of concentrations with JAWS II cells as APCs, and the amounts of IL-2 production were analyzed. Potencies of glycolipids are shown as 1/EC50 (as defined in Figure S1). […] Concentrations of IFN-γ, IL-4, and IL-12p70 were determined in serum by capture ELISA. “ND” stands for not detected. […]
(§2) For in vitro stimulation, murine iNKT hybridomas at 5 × 10^4 cells/well in 96-well plates were stimulated with an equal number of either JAWS II cells or transfected A20 cells in complete medium with glycolipids for 12 hr at 37°C, and levels of murine IL-2 secretion were determined. […] Subsequently the levels of IL-4, IL-13, and IFN-γ in culture supernatants were quantified by capture ELISA. […]

[2] = system: BALB/c splenocytes; test: Mouse splenocyte stimulation with glycolipids, IL-4, IL-13 and IFN-γ in supernatants; format: cell-based; settings: 48 hr
Description: as §1, §2

[3] = molecular target: T1, mCD1d; test: In vitro CD1d loading assay with immobilized mCD1d, saposins or Triton X-100, DN32.D3 hybridoma IL-2 readout; format: biochemical; settings: saposin 10 μg/ml, glycolipid αGalCer-C26:0
Experimental: Figure 5 Lack of Detergent-like Cofactor Dependence of Th2 Cell-Type Cytokine-Biasing αGalCer Analogs (A) Glycolipids were incubated for 24 hr at 37°C with murine CD1d proteins in the absence (top row) or presence (bottom row) of 0.05% Triton X-100. The resulting complexes were assembled as tetramers and used for staining mouse iNKT hybridoma DN3A4.1-2. The dashed line histograms show background staining with unloaded tetramers, and the bold histograms show staining with glycolipid loaded tetramers. (B) The same analysis as in (A) except with human CD1d tetramers, which were also used for DN3A4.1-2 staining. (C) Glycolipids at various concentrations were incubated with immobilized mCD1d protein for 2 hr in pH 7.0 or pH 5.0 buffers with no additives (medium) or in the same buffers containing the indicated purified recombinant saposins (10 μg/ml) or Triton X-100 (0.05%). After washing, DN32.D3 iNKT hybridoma cells were added and supernatant concentrations of IL-2 were determined after an additional 14 hr of incubation. All results shown (A, B, and C) were representative of at least two independent experiments.
To extend these observations to a more physiological model, we tested the effects of purified recombinant saposin A, B, C, and D proteins on loading of αGalCer analogs.
Recombinant murine CD1d proteins at 4 μg/ml in 50 μl PBS were coated on the surfaces of microtiter plate wells for 2 hr at 37°C and then washed with PBS for removal of unbound proteins. Subsequently, various concentrations of glycolipids in 0.1 M sodium phosphate buffer (pH 7.0) or 0.1 M sodium citrate buffer (pH 5.0) containing 150 mM NaCl were incubated with or without 0.05% Triton X-100 or recombinant purified human saposins A, B, C, or D at 10 μg/ml for another 2 hr at 37°C. Saposins were produced and purified as described ([Yuan et al., 2007]). After extensive washing with PBS and media, 5 × 10^4 murine iNKT hybridoma DN32.D3 cells were added in 200 μl of complete medium and incubated at 37°C for 14 hr. Supernatants were analyzed for murine IL-2 by capture ELISA.

| Molecule | activity in vivo (serum cytokines) [1] | Th2 cell-type cytokine bias (ratios of IL-13 or IL-4 to IFN-γ) [2] | activity of purified saposin in enabling loading of αGalCer-C26:0 onto mCD1d [3] |
| --- | --- | --- | --- |
| CCCCCCCCCCCCCCC(O)C(O)C(COC1OC(CO)C(O)C(O)C1O)NC(=O)Cc1ccc(F)cc1 (stereo not drawn) [αGalCer-4FPA] | minimal activity in vivo | pronounced Th2 cell-type biasing effect in vitro | – |
| B1 | – | – | strongly active |
| B2 | – | – | minimal or no activity |
| B3 | – | – | minimal or no activity |
| B4 | – | – | minimal or no activity |
